Test results published in US10703820B2, “Methods and compositions for reducing cardiac damage and other conditions” (Tufts Medical Center, Inc., priority 2013, dated 2020).
Marks after values point to notes of the source that are not given here.

Legend:
endoglin [1] = target: T1, endoglin (Homo sapiens, UniProt P17813); assay: TGFβ1 stimulation of left ventricular fibroblasts (LVFB) pretreated with N-Eng Ab; format: cell-based, mouse and human; details: N-Eng Ab 10, 50, 100 μg/mL, TGFβ1 10 ng/mL
T1 construct: endogenous in cells; host or cells: primary right and left ventricular cardiac fibroblasts (mouse and/or human)
T1 sequence (P17813 26-658): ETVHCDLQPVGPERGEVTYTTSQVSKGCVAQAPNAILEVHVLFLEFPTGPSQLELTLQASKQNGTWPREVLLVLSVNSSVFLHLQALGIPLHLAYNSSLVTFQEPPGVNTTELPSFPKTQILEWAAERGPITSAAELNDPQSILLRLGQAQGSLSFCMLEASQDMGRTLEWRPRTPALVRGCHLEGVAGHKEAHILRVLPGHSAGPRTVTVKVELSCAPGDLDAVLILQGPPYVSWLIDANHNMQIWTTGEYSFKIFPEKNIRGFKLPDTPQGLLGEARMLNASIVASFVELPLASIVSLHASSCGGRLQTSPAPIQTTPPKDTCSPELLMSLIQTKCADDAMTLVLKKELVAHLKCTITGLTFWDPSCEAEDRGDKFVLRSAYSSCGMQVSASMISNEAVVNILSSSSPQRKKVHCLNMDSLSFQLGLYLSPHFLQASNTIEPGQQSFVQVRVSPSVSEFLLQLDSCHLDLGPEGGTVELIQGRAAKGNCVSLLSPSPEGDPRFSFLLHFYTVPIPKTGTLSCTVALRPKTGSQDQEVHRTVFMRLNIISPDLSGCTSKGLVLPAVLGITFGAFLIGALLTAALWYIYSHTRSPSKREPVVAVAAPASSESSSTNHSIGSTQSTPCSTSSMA
Method: (§1) 115:67-75, 2007 and Neuss et al., Cell Tissue Res. 286:145-153, 1996. For neutralizing antibody studies in vitro, mouse cardiac fibroblasts were pretreated with 10, 50, or 100 ug/mL of either a N-Eng Ab or control IgG Ab for 24 hours in fibroblast basal medium without supplementation prior to stimulation with TGFβ1 (10 ng/mL). After 24 hours, cells were harvested for analysis. […] 7:e5-920, 2012.

endoglin [2] = target: T2, endoglin (Mus musculus, UniProt Q63961); assay: Chronic moderate RVPO (PAC), antibody given from week 3 to week 6
T2 sequence (Q63961 27-653): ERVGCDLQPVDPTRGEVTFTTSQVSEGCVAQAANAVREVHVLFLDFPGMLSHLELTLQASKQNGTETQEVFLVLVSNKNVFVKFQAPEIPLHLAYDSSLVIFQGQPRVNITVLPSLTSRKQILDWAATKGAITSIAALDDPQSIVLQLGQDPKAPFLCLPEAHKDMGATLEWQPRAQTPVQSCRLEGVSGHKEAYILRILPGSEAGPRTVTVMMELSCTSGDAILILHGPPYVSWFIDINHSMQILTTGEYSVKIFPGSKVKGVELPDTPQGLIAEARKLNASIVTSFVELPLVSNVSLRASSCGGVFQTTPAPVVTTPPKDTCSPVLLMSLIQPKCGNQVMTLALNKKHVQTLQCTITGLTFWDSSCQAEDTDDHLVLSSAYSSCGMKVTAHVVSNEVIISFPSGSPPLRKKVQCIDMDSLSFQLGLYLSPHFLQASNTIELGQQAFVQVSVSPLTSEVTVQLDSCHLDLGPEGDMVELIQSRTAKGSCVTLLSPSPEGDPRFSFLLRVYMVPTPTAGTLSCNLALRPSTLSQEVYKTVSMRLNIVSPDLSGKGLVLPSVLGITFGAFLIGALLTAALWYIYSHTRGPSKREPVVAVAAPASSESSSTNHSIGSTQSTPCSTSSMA
Method: (§2) Specifically, mice were intubated using a 24G angiocath and mechanically ventilated (Harvard Apparatus) at 95 breaths per minute with a tidal volume of 0.3 mL with 2.0-2.5% Isoflurane and 100% flow-through oxygen. Depth of anesthesia was monitored by assessing palpebral reflex, toe pinch, respirations, and general response to touch. Using sterile technique, a left thoracotomy was performed to isolate and encircle the main pulmonary artery using a 7-0 nylon suture that is then tied tightly around a pre-sterilized, blunt end needle. After de-airing, the thorax is closed with layered 6-0 Dexon sutures to eliminate the risk of pneumothorax. Post-operative analgesia is immediately provided with subcutaneous buprenorphine 0.1 mL, which is continued twice daily and as needed for an additional 72 hours. Severe RVPO was induced by PAC with a 25G needle for 7 days in WT and Eng+/− mice. To investigate the role of endoglin in RVPO, WT mice received 15 mg/kg of either a neutralizing antibody to endoglin (N-Eng Ab; TRC105; Tracon Pharma) or an IgG1 control antibody (IgG Ab; R&D Systems) via single intraperitoneal injection 1 day prior to and 3 days after induction of severe RVPO. To study the effect of blocking endoglin activity after induction of RVPO, WT mice were randomized to receive biweekly IP injections for three weeks of 15 mg/kg N-Eng Ab or IgG control Ab beginning three weeks after induction of moderate RVPO using a 23G needle for PAC. […] After 7 days of severe PAC or 3 to 6 weeks of moderate RVPO, mice underwent hemodynamic analysis with a RV conductance catheter (Millar Inc) as previously described in Kapur et al., PLoS ONE. […] Briefly, mice were anesthetized with 2.0% isoflurane administered via a non-invasive nose-cone. Body temperature was monitored by a rectal thermistor probe and maintained at 37.5° C. with heating pads and a cycling heat lamp. In the supine position, the right external jugular vein was surgically isolated. A conductance catheter was advanced into the right ventricle for pressure-volume loop acquisition as described in Kapur et al., PLoS ONE. […] After completion of the hemodynamic study, with the animal still under isoflurane anesthesia, the chest was rapidly opened, and the mouse was euthanized by arresting the heart in diastole with 0.3 mL of 1N KCL injected directly into the left ventricle. The heart was then removed and processed for either biochemical or histologic analyses.
(§3) All animals underwent terminal hemodynamic evaluation. Right heart catheterization was performed at the time of sacrifice in all animals. Mice were anesthetized with 2.0% isoflurane administered by a noninvasive nose cone. Body temperature was monitored by a rectal thermistor probe and maintained at 37.5° C. with heating pads and a cycling heat lamp. In the supine position, the right common carotid and right external jugular vein were surgically isolated. Silk ties were placed at the distal ends of both vessels while overhand loops were placed at the proximal ends with 7-0 nylon. A Millar PVR-1035 (Millar Instruments) mouse conductance catheter was used for RV recordings.

endoglin [3] = assay: TGFβ1 stimulation of right ventricular fibroblasts (RVFB) pretreated with N-Eng Ab; format: cell-based, mouse and human; details: N-Eng Ab 10, 50, 100 μg/mL, TGFβ1 10 ng/mL
Method: as §1

endoglin [4] = target: T2, endoglin; assay: Severe RVPO induced by PAC for 7 days in wild-type mice pre-treated with N-Eng Ab
Method: as §2, §3

[5] = 6 weeks moderate RVPO, antibody for the last 3 weeks
[6] = moderate PAC 6 weeks, N-Eng Ab 15 mg/kg IP biweekly for the last 3 weeks
[7] = Sham, wild-type mice + N-Eng Ab 15 mg/kg IP
[8] = after severe RVPO, compared to the IgG group
[9] = severe PAC 7 days, N-Eng Ab 15 mg/kg IP 1 day prior and 3 days after

Substance: N-Eng Ab: neutralizing IgG1 antibody that binds human and mouse endoglin (TRC105), provided by Tracon Pharmaceuticals
- TGFβ1 induced calcineurin protein expression (endoglin [1]): not LVFB
- TGFβ1 induced protein levels of pERK-1/2 (endoglin [1]): inhibited
- TGFβ1 induced protein levels of pSmad-3 (endoglin [1]): inhibited
- TGFβ1 induced α-SMA protein expression (endoglin [1]): not LVFB
- TGFβ1 induced calcineurin protein expression (endoglin [1]; listed as TRC105): not LV fibroblasts
- Calcineurin protein expression (endoglin [2]; [5]): reduced
- RV fibrosis (endoglin [2]; [5]): significantly reduced
- Type I collagen protein expression (endoglin [2]; [5]): reduced
- RV fibrosis (endoglin [2]; 6 weeks moderate RVPO, antibody for the last 3 weeks, listed as TRC105): reduced RV fibrosis
- Cardiac output (endoglin [2]; [6]): 1.4 ± 0.6 mL/min
- Heart rate (endoglin [2]; [6]): 550 ± 52 beats per min
- LV weight/tibial length (endoglin [2]; [6]): 4.5 ± 0.2 g/mm
- RV +dp/dt (endoglin [2]; [6]): 4072 ± 875 mm Hg/sec
- RV end-diastolic pressure (endoglin [2]; [6]): 2 ± 1 mm Hg
- RV stroke volume (endoglin [2]; [6]): 3 ± 2 µL
- RV systolic pressure (endoglin [2]; [6]): 69 ± 14 mm Hg
- RV weight/tibial length (endoglin [2]; [6]): 2.5 ± 0.4 g/mm
- RV −dp/dt (endoglin [2]; [6]): 3916 ± 875 mm Hg/sec
- Total body weight (endoglin [2]; [6]): 27 ± 2 g
- Mortality (endoglin [2]; moderate RVPO, any time point): No mortality was observed
- TGFβ1 induced calcineurin protein expression (endoglin [3]): inhibited
- TGFβ1 induced protein levels of pERK-1/2 (endoglin [3]): inhibited
- TGFβ1 induced protein levels of pSmad-3 (endoglin [3]): inhibited
- TGFβ1 induced α-SMA protein expression (endoglin [3]): inhibited
- TGFβ1 induced calcineurin protein expression (endoglin [3]; listed as TRC105): attenuated
- Cardiac output (endoglin [4]; [7]): 4.0 ± 1 mL/min
- Heart rate (endoglin [4]; [7]): 512 ± 59 beats per min
- LV weight/tibial length (endoglin [4]; [7]): 6 ± 0.01
- RV +dp/dt (endoglin [4]; [7]): 2171 ± 283 mm Hg/sec
- RV end-diastolic pressure (endoglin [4]; [7]): 3 ± 2 mm Hg
- RV stroke volume (endoglin [4]; [7]): 8 ± 2 µL
- RV systolic pressure (endoglin [4]; [7]): 24 ± 3 mm Hg
- RV weight/tibial length (endoglin [4]; [7]): 1.5 ± 0.01 g/mm
- RV −dp/dt (endoglin [4]; [7]): 1963 ± 257 mm Hg/sec
- Total body weight (endoglin [4]; [7]): 28 ± 1 g
- Survival (endoglin [4]; after 7 days of severe RVPO, compared to IgG treatment): improved survival
- RV MYH7 mRNA levels (endoglin [4]; after severe RVPO): reduced
- RV TRPC-6 mRNA levels (endoglin [4]; after severe RVPO): reduced
- RV mass (degree of hypertrophy) (endoglin [4]; after severe RVPO): attenuated
- RV α-SMA mRNA levels (endoglin [4]; after severe RVPO): reduced
- RV Type I collagen levels (endoglin [4]; [8]): reduced
- RV calcineurin levels (endoglin [4]; [8]): reduced
- RV fibrosis (endoglin [4]; [8]): significantly reduced
- RV pERK-1/2 levels (endoglin [4]; [8]): reduced
- RV pSmad-3 levels (endoglin [4]; [8]): reduced
- Cardiac output (endoglin [4]; [9]): 2.4 ± 0.2 mL/min
- Heart rate (endoglin [4]; [9]): 514 ± 52 beats per min
- LV weight/tibial length (endoglin [4]; [9]): 5 ± 0.02
- RV +dp/dt (endoglin [4]; [9]): 4130 ± 563 mm Hg/sec
- RV end-diastolic pressure (endoglin [4]; [9]): 4 ± 2 mm Hg
- RV stroke volume (endoglin [4]; [9]): 5 ± 1 µL
- RV systolic pressure (endoglin [4]; [9]): 53 ± 9 mm Hg
- RV weight/tibial length (endoglin [4]; [9]): 1.9 ± 0.01*^,† g/mm
- RV −dp/dt (endoglin [4]; [9]): 3287 ± 350 mm Hg/sec
- Total body weight (endoglin [4]; [9]): 24 ± 2 g
- RV cardiomyocyte cross sectional area (endoglin [4]; severe RVPO, compared to IgG controls (p=0.09)): trend towards lower cardiomyocyte hypertrophy
